This note sets out measurements from the RNAGym collection of RNA variant scans (doi:10.7554/elife.80360).

The chains are these.
B1: Hairpin Ribozyme (parent)
chain: GUCCUCUUUCACGUGCGCGUGAAAGAGAGAAGUGAACCAGAGAAACACACGUUGUGGUAUAUUACCUGGUA

This data set covers variants of B1. Description: self-cleavage, relative activity (ratio to wild type); higher = more cleavage; co-transcriptional.
On to C38U C46A, for which the self-cleavage was determined as 0.182.

For C38G G69U, the self-cleavage came out at 0.155.

As for C38G G69A, the self-cleavage turned out to be 0.196.

In the case of C38G G69C, the self-cleavage turned out to be 0.241.

Consider G40A A43G, for which the self-cleavage is 0.18.

As to G40A A43U, the self-cleavage amounted to 0.0963.

In the case of C38G U55G, the self-cleavage is 0.193.

Consider C38G U55A, for which the self-cleavage is 0.288.

For the variant A39C U52C, the self-cleavage was found to be 0.56.

As for A39G C65U, the self-cleavage was determined as 0.263.

For A39G A44C, the self-cleavage is 0.0747.

Consider A39C U53A, for which the self-cleavage was found to be 0.549.

Take A39G U58C: the self-cleavage turned out to be 0.272.

Consider A39U G54C, for which the self-cleavage is 0.0503.

Consider A39G G40A, for which the self-cleavage stood at 0.102.

For the variant C38U U55C, the self-cleavage was found to be 0.231.

As to C38U U67A, the self-cleavage turned out to be 0.119.

In the case of A39G U63A, the self-cleavage is 0.111.

Regarding A39C A45C, the self-cleavage was found to be 0.174.

Consider A39C A45U, for which the self-cleavage was determined as 0.231.

Take A39U C50A: the self-cleavage was 0.139.

As for A39U C50U, the self-cleavage turned out to be 0.204.

Turning to A39U C50G, the self-cleavage worked out at 0.0689.

As for C38G C46U, the self-cleavage was 0.116.

On to A39G A41G, for which the self-cleavage was 0.619.

As for A39G A41U, the self-cleavage was found to be 0.474.

Turning to A39G G68C, the self-cleavage was found to be 0.103.

Consider A39G G68A, for which the self-cleavage turned out to be 0.0973.

For A39U U62G, the self-cleavage is 0.088.

For the variant A39C A41G, the self-cleavage came to 0.591.

Regarding C38G G40A, the self-cleavage turned out to be 0.148.

For the variant C38G G40U, the self-cleavage worked out at 0.169.

As for A39G A45G, the self-cleavage amounted to 0.0935.

Consider A39G C66G, for which the self-cleavage worked out at 0.0926.

Turning to C38U U58C, the self-cleavage was found to be 0.544.

Turning to G40A A64C, the self-cleavage stood at 0.16.

In the case of C38U A59U, the self-cleavage came to 0.228.

Regarding A39U U52C, the self-cleavage was found to be 0.378.

Turning to A39U C46U, the self-cleavage is 0.114.

As for A39U C46A, the self-cleavage came out at 0.166.

Consider C38U C66A, for which the self-cleavage was determined as 0.167.

Take C38U C66U: the self-cleavage came out at 0.192.

In the case of G40A A45U, the self-cleavage amounted to 0.149.

As to A39G U62G, the self-cleavage was found to be 0.074.

As for C38U G56A, the self-cleavage was found to be 0.106.

For the variant C38U G56U, the self-cleavage is 0.14.

With A39G U55G, the self-cleavage is 0.12.

In the case of A39G U55C, the self-cleavage was 0.119.

As for A39U G57C, the self-cleavage was determined as 0.134.

With A39U G57U, the self-cleavage amounted to 0.123.

For A39U G57A, the self-cleavage came to 0.155.

Turning to C38U C65A, the self-cleavage came out at 0.453.

Take A39C G54A: the self-cleavage was 0.121.

Turning to C38G U60G, the self-cleavage was 0.146.

C38U U60C: the self-cleavage amounted to 0.759.

In the case of C38U U60A, the self-cleavage amounted to 0.428.

For C38G G42C, the self-cleavage worked out at 0.134.

Take A39C C66G: the self-cleavage was 0.0809.

In the case of A39C C66U, the self-cleavage amounted to 0.306.

For the variant A39C U67A, the self-cleavage came out at 0.272.

In the case of G40A A61G, the self-cleavage stood at 0.139.

For C38G U62C, the self-cleavage was 0.236.

On to C38G C48A, for which the self-cleavage was determined as 0.202.

Turning to C38U A41U, the self-cleavage was determined as 0.742.

C38U A41G: the self-cleavage amounted to 0.648.

On to C38U A41C, for which the self-cleavage was 0.619.

Take G40A A44U: the self-cleavage was found to be 0.178.

With A39G A47U, the self-cleavage is 0.134.

Regarding A39G A47G, the self-cleavage amounted to 0.116.

Take C38U C50G: the self-cleavage is 0.0694.

With C38U G69A, the self-cleavage was 0.138.

For the variant C38U G51C, the self-cleavage turned out to be 0.583.

As for A39G A49G, the self-cleavage came to 0.116.

For the variant A39U U70G, the self-cleavage was 0.333.

In the case of A39C G56C, the self-cleavage was determined as 0.144.

Turning to A39C G56U, the self-cleavage turned out to be 0.134.

As for C38G U67C, the self-cleavage worked out at 0.119.

In the case of A39U A47G, the self-cleavage is 0.158.

In the case of C38G G56C, the self-cleavage is 0.0901.

As for A39G G56U, the self-cleavage came out at 0.0978.

For A39G G56A, the self-cleavage was 0.147.

For A39G C48A, the self-cleavage amounted to 0.0878.

Turning to A39C G51C, the self-cleavage was 0.324.

Regarding C38U A44C, the self-cleavage is 0.0457.

As to C38U A44U, the self-cleavage came to 0.135.

C38U A71U: the self-cleavage was 0.401.

Consider C38U A71C, for which the self-cleavage was determined as 0.889.

Consider C38G U53G, for which the self-cleavage was 0.206.

As for C38G U53C, the self-cleavage is 0.196.

As for A39U A71C, the self-cleavage was 0.694.

On to A39C G69U, for which the self-cleavage worked out at 0.147.

In the case of A39C G69C, the self-cleavage was 0.188.

With A39U A49U, the self-cleavage turned out to be 0.0838.

A39U A49C: the self-cleavage worked out at 0.145.

With A39C A61U, the self-cleavage amounted to 0.125.

On to A39G A43U, for which the self-cleavage is 0.141.

Take A39U A41G: the self-cleavage stood at 0.644.

As to C38G U70G, the self-cleavage came out at 0.216.

As for A39G G42A, the self-cleavage stood at 0.114.

With A39U A61C, the self-cleavage amounted to 0.187.

Turning to A39C A44G, the self-cleavage was found to be 0.0893.

C38G U58C: the self-cleavage stood at 0.185.

For C38G U58G, the self-cleavage came out at 0.175.

Consider C38G U58A, for which the self-cleavage is 0.139.

With C38U A49C, the self-cleavage came out at 0.245.

On to C38U G42A, for which the self-cleavage was 0.132.

As to C38U A43G, the self-cleavage is 0.0885.

With C38U A43U, the self-cleavage was 0.153.

Take A39C U55A: the self-cleavage turned out to be 0.148.

For the variant A39G A71U, the self-cleavage worked out at 0.176.

Consider A39G A71C, for which the self-cleavage is 0.303.

C38G C65A: the self-cleavage is 0.145.

On to A39U U67G, for which the self-cleavage turned out to be 0.371.

As for A39U A43C, the self-cleavage amounted to 0.129.

For G40A A47G, the self-cleavage was 0.138.

As to C38U U70C, the self-cleavage was 0.268.

Take C38U U62A: the self-cleavage was determined as 0.128.

C38U U62C: the self-cleavage is 0.273.

With A39C A47C, the self-cleavage came out at 0.207.

As for C38G G68U, the self-cleavage came out at 0.514.

On to A39G A61G, for which the self-cleavage worked out at 0.123.

A39G A61C: the self-cleavage was 0.139.

Turning to C38U G40U, the self-cleavage is 0.101.

For the variant C38G G57C, the self-cleavage is 0.103.

Regarding C38G U63G, the self-cleavage was found to be 0.231.

With C38G U63A, the self-cleavage worked out at 0.117.

For A39U G56A, the self-cleavage amounted to 0.114.

Take C38U A45G: the self-cleavage was determined as 0.197.

Turning to C38U A45C, the self-cleavage is 0.108.

For A39U U55A, the self-cleavage stood at 0.155.

Take G40A A41C: the self-cleavage is 0.274.

A39G G54U: the self-cleavage was 0.163.

Regarding A39G A59U, the self-cleavage is 0.153.

Turning to A39U U63C, the self-cleavage stood at 0.144.

As for A39U U53A, the self-cleavage was 0.233.

As to A39C U62C, the self-cleavage stood at 0.161.

For C38U G57A, the self-cleavage came out at 0.229.

Turning to A39C C48U, the self-cleavage is 0.145.

For A39U A45G, the self-cleavage was 0.252.

As for A39U A45C, the self-cleavage turned out to be 0.123.

Turning to C38U G54U, the self-cleavage came out at 0.336.

As to C38U G54C, the self-cleavage is 0.235.

On to A39G U67A, for which the self-cleavage came to 0.126.

A39U G42U: the self-cleavage amounted to 0.172.

On to A39U G69C, for which the self-cleavage was 0.073.

For the variant A39U G69U, the self-cleavage turned out to be 0.151.

As to A39U G69A, the self-cleavage came to 0.157.

For the variant C38G C50G, the self-cleavage worked out at 0.0871.

As to C38G C50A, the self-cleavage was 0.162.

On to C38U U63A, for which the self-cleavage came out at 0.141.

With A39U U60C, the self-cleavage came to 0.378.

Consider A39U U60A, for which the self-cleavage came out at 0.345.

For A39G G69U, the self-cleavage is 0.122.

Take A39C G42U: the self-cleavage came out at 0.11.

For the variant A39U C66A, the self-cleavage turned out to be 0.121.

Turning to A39U C66G, the self-cleavage is 0.135.

G40A A49U: the self-cleavage came out at 0.0787.

As to G40A A49G, the self-cleavage was 0.182.

Consider C38G G54U, for which the self-cleavage is 0.0948.

As to C38G G54C, the self-cleavage was 0.12.

For the variant A39G U60C, the self-cleavage was determined as 0.424.

Regarding A39C A49C, the self-cleavage amounted to 0.151.

A39C A49U: the self-cleavage stood at 0.12.

As for A39C C50U, the self-cleavage amounted to 0.156.

In the case of A39C U63A, the self-cleavage was 0.17.

As for A39U G51U, the self-cleavage was 0.632.

As to C38U A64U, the self-cleavage was found to be 0.301.
